Assay results as given in patent publication US20220204580A1 (AstraZeneca / MedImmune, published 2022).
Numbered stars: 1 amine (or outer) side, 2 acyl side, 3 side chain; on linkers, the order of the positions; unused ones are H or OH. Bridge positions count the residues as written; N and C are the ends. Square brackets hold non-standard residues; d marks the D form. Side chains are listed from the residue outwards. Ends that are not written are not given here. * marks the point of attachment. C18 diacid = O=C(O)CCCCCCCCCCCCCCCCC(=O)*; γGlu = O=C(O)[C@H](CCC(=O)[*:2])N[*:1]; Aib = CC(C)(N)C(=O)O

T1: human amylin receptor (calcitonin receptor co-expressed with receptor activity modifying protein, RAMP3) (human, UniProt P30988 25-474; O60896 24-148)
T1 sequence (looked up) 1: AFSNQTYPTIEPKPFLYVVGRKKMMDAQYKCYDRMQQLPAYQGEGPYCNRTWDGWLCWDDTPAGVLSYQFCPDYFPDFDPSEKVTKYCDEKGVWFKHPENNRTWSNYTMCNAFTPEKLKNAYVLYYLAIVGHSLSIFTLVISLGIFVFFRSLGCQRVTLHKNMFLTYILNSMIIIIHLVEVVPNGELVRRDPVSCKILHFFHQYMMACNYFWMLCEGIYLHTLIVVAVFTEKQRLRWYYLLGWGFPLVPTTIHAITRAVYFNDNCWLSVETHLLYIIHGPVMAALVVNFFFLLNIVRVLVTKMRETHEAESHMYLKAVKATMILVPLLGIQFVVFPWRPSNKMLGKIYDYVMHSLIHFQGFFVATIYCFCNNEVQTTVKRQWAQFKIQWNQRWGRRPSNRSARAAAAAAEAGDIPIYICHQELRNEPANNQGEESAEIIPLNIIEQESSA
T1 sequence (looked up) 2: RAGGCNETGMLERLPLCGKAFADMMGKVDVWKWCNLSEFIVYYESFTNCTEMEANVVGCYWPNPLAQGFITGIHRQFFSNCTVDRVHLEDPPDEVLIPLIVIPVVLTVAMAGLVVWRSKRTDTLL

T2: human calcitonin receptor (human, UniProt P30988 25-474)
T2 sequence (looked up): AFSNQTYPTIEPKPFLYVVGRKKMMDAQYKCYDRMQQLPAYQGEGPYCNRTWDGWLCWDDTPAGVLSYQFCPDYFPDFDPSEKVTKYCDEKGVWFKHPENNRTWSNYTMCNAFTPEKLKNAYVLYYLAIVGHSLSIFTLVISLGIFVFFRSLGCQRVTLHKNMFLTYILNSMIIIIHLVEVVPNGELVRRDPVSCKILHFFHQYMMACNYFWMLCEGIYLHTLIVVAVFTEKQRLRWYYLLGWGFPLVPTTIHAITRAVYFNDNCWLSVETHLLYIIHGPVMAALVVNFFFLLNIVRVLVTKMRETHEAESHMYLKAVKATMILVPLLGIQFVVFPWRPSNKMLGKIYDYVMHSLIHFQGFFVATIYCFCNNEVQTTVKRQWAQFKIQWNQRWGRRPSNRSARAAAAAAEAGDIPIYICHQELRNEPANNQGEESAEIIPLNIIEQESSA


Experiments:
[1] = target: T1, human amylin receptor (calcitonin …); experiment: cell-based or functional assay
[2] = target: T2, human calcitonin receptor; experiment: cell-based or functional assay

Binder | EC50 (cAMP production) [1] [nM] | Ratio (EC50 hCTR / EC50 hAMYR3) [1] | EC50 (cAMP production) [2] [nM]
K([γGlu-C18 diacid])KCNTATCATQRLANFLRHSS[Aib]NFGPILPPTNVGSNTY-NH2 (disulfide 3-8; N-terminus assumed; SMILES CC[C@H](C)[C@H](NC(=O)[C@@H]1CCCN1C(=O)CNC(=O)[C@H](Cc1ccccc1)NC(=O)[C@H](CC(N)=O)NC(=O)C(C)(C)NC(=O)[C@H](CO)NC(=O)[C@H](CO)NC(=O)[C@H](Cc1c[nH]cn1)NC(=O)[C@H](CCCNC(=N)N)NC(=O)[C@H](CC(C)C)NC(=O)[C@H](Cc1ccccc1)NC(=O)[C@H](CC(N)=O)NC(=O)[C@H](C)NC(=O)[C@H](CC(C)C)NC(=O)[C@H](CCCNC(=N)N)NC(=O)[C@H](CCC(N)=O)NC(=O)[C@@H](NC(=O)[C@H](C)NC(=O)[C@@H]1CSSC[C@H](NC(=O)[C@H](CCCCN)NC(=O)[C@@H](N)CCCCNC(=O)CC[C@H](NC(=O)CCCCCCCCCCCCCCCCC(=O)O)C(=O)O)C(=O)N[C@@H](CC(N)=O)C(=O)N[C@@H]([C@@H](C)O)C(=O)N[C@@H](C)C(=O)N[C@@H]([C@@H](C)O)C(=O)N1)[C@@H](C)O)C(=O)N[C@@H](CC(C)C)C(=O)N1CCC[C@H]1C(=O)N1CCC[C@H]1C(=O)N[C@H](C(=O)N[C@@H](CC(N)=O)C(=O)N[C@H](C(=O)NCC(=O)N[C@@H](CO)C(=O)N[C@@H](CC(N)=O)C(=O)N[C@H](C(=O)N[C@@H](Cc1ccc(O)cc1)C(N)=O)[C@@H](C)O)C(C)C)[C@@H](C)O) [Peptide 65 (SEQ ID NO: 65)] | 0.207 | 31 | 6.4
{C18 diacid-γGlu}-CNTATCATQRLANFLVHSS[Aib]NFGPILPPTRVGSNTY-NH2 (disulfide 1-6; SMILES CC[C@H](C)[C@H](NC(=O)[C@@H]1CCCN1C(=O)CNC(=O)[C@H](Cc1ccccc1)NC(=O)[C@H](CC(N)=O)NC(=O)C(C)(C)NC(=O)[C@H](CO)NC(=O)[C@H](CO)NC(=O)[C@H](Cc1c[nH]cn1)NC(=O)[C@@H](NC(=O)[C@H](CC(C)C)NC(=O)[C@H](Cc1ccccc1)NC(=O)[C@H](CC(N)=O)NC(=O)[C@H](C)NC(=O)[C@H](CC(C)C)NC(=O)[C@H](CCCNC(=N)N)NC(=O)[C@H](CCC(N)=O)NC(=O)[C@@H](NC(=O)[C@H](C)NC(=O)[C@@H]1CSSC[C@H](NC(=O)CC[C@H](NC(=O)CCCCCCCCCCCCCCCCC(=O)O)C(=O)O)C(=O)N[C@@H](CC(N)=O)C(=O)N[C@@H]([C@@H](C)O)C(=O)N[C@@H](C)C(=O)N[C@@H]([C@@H](C)O)C(=O)N1)[C@@H](C)O)C(C)C)C(=O)N[C@@H](CC(C)C)C(=O)N1CCC[C@H]1C(=O)N1CCC[C@H]1C(=O)N[C@H](C(=O)N[C@@H](CCCNC(=N)N)C(=O)N[C@H](C(=O)NCC(=O)N[C@@H](CO)C(=O)N[C@@H](CC(N)=O)C(=O)N[C@H](C(=O)N[C@@H](Cc1ccc(O)cc1)C(N)=O)[C@@H](C)O)C(C)C)[C@@H](C)O) [Peptide 68 (SEQ ID NO: 68)] | 0.192 | 9 | 1.77
K([γGlu-γGlu-C18 diacid])KCNTATCATQRLANFLRHSS[Aib]NFGPILPPTNVGSNTY-NH2 (disulfide 3-8; N-terminus assumed; SMILES CC[C@H](C)[C@H](NC(=O)[C@@H]1CCCN1C(=O)CNC(=O)[C@H](Cc1ccccc1)NC(=O)[C@H](CC(N)=O)NC(=O)C(C)(C)NC(=O)[C@H](CO)NC(=O)[C@H](CO)NC(=O)[C@H](Cc1c[nH]cn1)NC(=O)[C@H](CCCNC(=N)N)NC(=O)[C@H](CC(C)C)NC(=O)[C@H](Cc1ccccc1)NC(=O)[C@H](CC(N)=O)NC(=O)[C@H](C)NC(=O)[C@H](CC(C)C)NC(=O)[C@H](CCCNC(=N)N)NC(=O)[C@H](CCC(N)=O)NC(=O)[C@@H](NC(=O)[C@H](C)NC(=O)[C@@H]1CSSC[C@H](NC(=O)[C@H](CCCCN)NC(=O)[C@@H](N)CCCCNC(=O)CC[C@H](NC(=O)CC[C@H](NC(=O)CCCCCCCCCCCCCCCCC(=O)O)C(=O)O)C(=O)O)C(=O)N[C@@H](CC(N)=O)C(=O)N[C@@H]([C@@H](C)O)C(=O)N[C@@H](C)C(=O)N[C@@H]([C@@H](C)O)C(=O)N1)[C@@H](C)O)C(=O)N[C@@H](CC(C)C)C(=O)N1CCC[C@H]1C(=O)N1CCC[C@H]1C(=O)N[C@H](C(=O)N[C@@H](CC(N)=O)C(=O)N[C@H](C(=O)NCC(=O)N[C@@H](CO)C(=O)N[C@@H](CC(N)=O)C(=O)N[C@H](C(=O)N[C@@H](Cc1ccc(O)cc1)C(N)=O)[C@@H](C)O)C(C)C)[C@@H](C)O) [Peptide 66 (SEQ ID NO: 66)] | 0.418 | 17 | 7.01
K([γGlu-γGlu-C18 diacid])CNTATCATQRLANFLVHSS[Aib]NFGPILPPTRVGSNTY-NH2 (disulfide 2-7; N-terminus assumed; SMILES CC[C@H](C)[C@H](NC(=O)[C@@H]1CCCN1C(=O)CNC(=O)[C@H](Cc1ccccc1)NC(=O)[C@H](CC(N)=O)NC(=O)C(C)(C)NC(=O)[C@H](CO)NC(=O)[C@H](CO)NC(=O)[C@H](Cc1c[nH]cn1)NC(=O)[C@@H](NC(=O)[C@H](CC(C)C)NC(=O)[C@H](Cc1ccccc1)NC(=O)[C@H](CC(N)=O)NC(=O)[C@H](C)NC(=O)[C@H](CC(C)C)NC(=O)[C@H](CCCNC(=N)N)NC(=O)[C@H](CCC(N)=O)NC(=O)[C@@H](NC(=O)[C@H](C)NC(=O)[C@@H]1CSSC[C@H](NC(=O)[C@@H](N)CCCCNC(=O)CC[C@H](NC(=O)CC[C@H](NC(=O)CCCCCCCCCCCCCCCCC(=O)O)C(=O)O)C(=O)O)C(=O)N[C@@H](CC(N)=O)C(=O)N[C@@H]([C@@H](C)O)C(=O)N[C@@H](C)C(=O)N[C@@H]([C@@H](C)O)C(=O)N1)[C@@H](C)O)C(C)C)C(=O)N[C@@H](CC(C)C)C(=O)N1CCC[C@H]1C(=O)N1CCC[C@H]1C(=O)N[C@H](C(=O)N[C@@H](CCCNC(=N)N)C(=O)N[C@H](C(=O)NCC(=O)N[C@@H](CO)C(=O)N[C@@H](CC(N)=O)C(=O)N[C@H](C(=O)N[C@@H](Cc1ccc(O)cc1)C(N)=O)[C@@H](C)O)C(C)C)[C@@H](C)O) [Peptide 67 (SEQ ID NO: 67)] | 0.132 | 30 | 4.01

Next, values leading:

EC50 (cAMP production) [1] [nM] | Ratio (EC50 hCTR / EC50 hAMYR3) [1] | EC50 (cAMP production) [2] [nM] | Binder
0.164 | 10 | 1.57 | K([γGlu-C18 diacid])KCNTATCATQRLANFLVHSS[Aib]NFGPILPPTRVGSNTY-NH2 (disulfide 3-8; N-terminus assumed; SMILES CC[C@H](C)[C@H](NC(=O)[C@@H]1CCCN1C(=O)CNC(=O)[C@H](Cc1ccccc1)NC(=O)[C@H](CC(N)=O)NC(=O)C(C)(C)NC(=O)[C@H](CO)NC(=O)[C@H](CO)NC(=O)[C@H](Cc1c[nH]cn1)NC(=O)[C@@H](NC(=O)[C@H](CC(C)C)NC(=O)[C@H](Cc1ccccc1)NC(=O)[C@H](CC(N)=O)NC(=O)[C@H](C)NC(=O)[C@H](CC(C)C)NC(=O)[C@H](CCCNC(=N)N)NC(=O)[C@H](CCC(N)=O)NC(=O)[C@@H](NC(=O)[C@H](C)NC(=O)[C@@H]1CSSC[C@H](NC(=O)[C@H](CCCCN)NC(=O)[C@@H](N)CCCCNC(=O)CC[C@H](NC(=O)CCCCCCCCCCCCCCCCC(=O)O)C(=O)O)C(=O)N[C@@H](CC(N)=O)C(=O)N[C@@H]([C@@H](C)O)C(=O)N[C@@H](C)C(=O)N[C@@H]([C@@H](C)O)C(=O)N1)[C@@H](C)O)C(C)C)C(=O)N[C@@H](CC(C)C)C(=O)N1CCC[C@H]1C(=O)N1CCC[C@H]1C(=O)N[C@H](C(=O)N[C@@H](CCCNC(=N)N)C(=O)N[C@H](C(=O)NCC(=O)N[C@@H](CO)C(=O)N[C@@H](CC(N)=O)C(=O)N[C@H](C(=O)N[C@@H](Cc1ccc(O)cc1)C(N)=O)[C@@H](C)O)C(C)C)[C@@H](C)O) [Peptide 69 (SEQ ID NO: 69)]
0.235 | 23 | 5.41 | K([γGlu-γGlu-C18 diacid])KCNTATCATQRLANFLVHSS[Aib]NFGPILPPTRVGSNTY-NH2 (disulfide 3-8; N-terminus assumed; SMILES CC[C@H](C)[C@H](NC(=O)[C@@H]1CCCN1C(=O)CNC(=O)[C@H](Cc1ccccc1)NC(=O)[C@H](CC(N)=O)NC(=O)C(C)(C)NC(=O)[C@H](CO)NC(=O)[C@H](CO)NC(=O)[C@H](Cc1c[nH]cn1)NC(=O)[C@@H](NC(=O)[C@H](CC(C)C)NC(=O)[C@H](Cc1ccccc1)NC(=O)[C@H](CC(N)=O)NC(=O)[C@H](C)NC(=O)[C@H](CC(C)C)NC(=O)[C@H](CCCNC(=N)N)NC(=O)[C@H](CCC(N)=O)NC(=O)[C@@H](NC(=O)[C@H](C)NC(=O)[C@@H]1CSSC[C@H](NC(=O)[C@H](CCCCN)NC(=O)[C@@H](N)CCCCNC(=O)CC[C@H](NC(=O)CC[C@H](NC(=O)CCCCCCCCCCCCCCCCC(=O)O)C(=O)O)C(=O)O)C(=O)N[C@@H](CC(N)=O)C(=O)N[C@@H]([C@@H](C)O)C(=O)N[C@@H](C)C(=O)N[C@@H]([C@@H](C)O)C(=O)N1)[C@@H](C)O)C(C)C)C(=O)N[C@@H](CC(C)C)C(=O)N1CCC[C@H]1C(=O)N1CCC[C@H]1C(=O)N[C@H](C(=O)N[C@@H](CCCNC(=N)N)C(=O)N[C@H](C(=O)NCC(=O)N[C@@H](CO)C(=O)N[C@@H](CC(N)=O)C(=O)N[C@H](C(=O)N[C@@H](Cc1ccc(O)cc1)C(N)=O)[C@@H](C)O)C(C)C)[C@@H](C)O) [Peptide 70 (SEQ ID NO: 70)]
